This is an account of results in article PMC8967715 (2022).

In general, Kd refers to the equilibrium constant for the complex coming apart. The low end stands for tighter binding, the high end for weaker binding.

Experiment in all cases: FACS
The target in assay [1] is SARS-CoV-2 RBD (Wuhan-Hu-1, Asn331–Thr531), yeast-displayed (SARS-CoV-2 (Wuhan-Hu-1), UniProt P0DTC2 331-531).
The next assay has as its target WIV1.
The target in assay [2] is BtKY72 RBD, yeast-displayed (bat sarbecovirus BtKY72).

B1: Mouse (Mus musculus) ACE2 (residues 18–740) with His tag and human IgG1 Fc (Fc fusion)
chain: QSLTEENAKTFLNNFNQEAEDLSYQSSLASWNYNTNITEENAQKMSEAAAKWSAFYEEQSKTAQSFSLQEIQTPIIKRQLQALQQSGSSALSADKNKQLNTILNTMSTIYSTGKVCNPKNPQECLLLEPGLDEIMATSTDYNSRLWAWEGWRAEVGKQLRPLYEEYVVLKNEMARANNYNDYGDYWRGDYEAEGADGYNYNRNQLIEDVERTFAEIKPLYEHLHAYVRRKLMDTYPSYISPTGCLPAHLLGDMWGRFWTNLYPLTVPFAQKPNIDVTDAMMNQGWDAERIFQEAEKFFVSVGLPHMTQGFWANSMLTEPADGRKVVCHPTAWDLGHGDFRIKMCTKVTMDNFLTAHHEMGHIQYDMAYARQPFLLRNGANEGFHEAVGEIMSLSAATPKHLKSIGLLPSDFQEDSETEINFLLKQALTIVGTLPFTYMLEKWRWMVFRGEIPKEQWMKKWWEMKREIVGVVEPLPHDETYCDPASLFHVSNDYSFIRYYTRTIYQFQFQEALCQAAKYNGSLHKCDISNSTEAGQKLLKMLSLGNSEPWTKALENVVGARNMDVKPLLNYFQPLFDWLKEQNRNSFVGWNTEWSPYADQSIKVRISLKSALGANAYEWTNNEMFLFRSSVAYAMRKYFSIIKNQTVPFLEEDVRVSDLKPRVSFYFFVTSPQNVSDVIPRSEVEDAIRMSRGRINDVFGLNDNSLEFLGIHPTLEPPYQPPVT
Turning to B1, the equilibrium dissociation constant (Kd) in assay [1] was > 10 µM; with WIV1, ~3.98 µM.

B2: R. affinis 787 ACE2 residues 19–615 with C-terminal human IgG1 Fc (Genscript) (Fc fusion)
chain: STTEDRAKIFLDNFNREAEELSYQSSLASWEYNTNISDENVQKMDEAGAKWSAFYEEQSKLAKNYPLEEIQTVPVKLQLQILQQSGSPVLSEDKSKRLNSILNAMSTIYSTGKVCKPNNPQECFLLEPGLDNIMGTSKDYNERLWAWEGWRAEVGKQLRPLYEEYVVLKNEMARGYHYEDYGDYWRRDYETEESSGSGYSRDQLMKDVDRIFTEIKPLYEHLHAYVRTKLMDTYPFHISPTGCLPAHLLGDMWGRFWTNLYPLTVPFGQKPNIDVTDAMVNQGWDANRIFKEAEKFFVSVGLPNMTEGFWNNSMLTEPGDGRKVVCHPTAWDLGKGDFRIKMCTKVTMEDFLTAHHEMGHIQYDMAYATQPYLLRNGANEGFHEAVGEVMSLSVATPKHLKTMGLLSPDFLEDNETEINFLLKQALNIVGTLPFTYMLEKWRWMVFRGEIPKEEWMKKWWEMKRDLVGVVEPVPHDETYCDPASLFHVANDYSFIRYYTRTIFEFQFHEALCRIAQHDGPLHKCDISNSTDAGKKLHQMLSVGKSQPWTVTLKDIVDSRNMDVGPLLRYFEPLYTWLQEQNRKSYVGWNTDWSPYSD
With B2, binding in assay [2] was characterised by a dissociation constant (Kd) of 100 nM. This counts as sub-micromolar.
